# B1: ALDH8A1 (parent)
# chain: WSSRSPQERSRVLNQVADLLEQSL
# Variants of: B1
# Test: protein stability index of a GFP-peptide fusion (GPS, HEK-293T) (PSI 1-6); higher = more stable
# Details: c terminus: a fixed tail appended
# 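Further: lentivirally expressed fusions sorted by FACS into six bins by GFP to DsRed ratio, PSI derived from sequencing read proportions per bin multiplied by bin number.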
row,Variant,protein stability index
1,WSSRSPQERSRVLNQVVDLLEQSL,2.69
2,WSSRSPQERSRVLNQVHDLLEQSL,2.54
3,WSSRSPQERSRVLNQVMDLLEQSL,1.85
4,WSSRSPQERSRVLNQVLDLLEQSL,1.48
5,WSSRSPQERSRVLNQVRDLLEQSL,1.9
6,WSSRSPQERSRVLNQVFDLLEQSL,2.58
7,WSSRSPQERSRVLNQVIDLLEQSL,2.42
8,WSSRSPQERSRVLNQVEDLLEQSL,3.88
9,WSSRSPQERSRVLNQVWDLLEQSL,2.33
10,WSSRSPQERSRVLNQVTDLLEQSL,3.1
11,WSSRSPQERSRVLNQVDDLLEQSL,3.87
12,WSSRSPQERSRVLNQVGDLLEQSL,3.47
13,WSSRSPQERSRVLNQVNDLLEQSL,3.3
14,WSSRSPQERSRVLNQVYDLLEQSL,2.15
15,WSSRSPQERSRVLNQVADQLEQSL,4.19
16,WSSRSPQERSRVLNQVADCLEQSL,3.14
17,WSSRSPQERSRVLNQVADFLEQSL,2.23
18,WSSRSPQERSRVLNQVADALEQSL,3.18
19,WSSRSPQERSRVLNQVADILEQSL,2.31
20,WSSRSPQERSRVLNQVADVLEQSL,3.07
21,WSSRSPQERSRVLNQVADGLEQSL,4.16
22,WSSRSPQERSRVLNQVADPLEQSL,4.63
23,WSSRSPQERSRVLNQVADELEQSL,4.4
24,WSSRSPQERSRVLNQVADNLEQSL,4.23

row,Variant,protein stability index
1,WSSRSPQERSRVLNQVADMLEQSL,2.52
2,WSSRSPQERSRVLNQVADKLEQSL,3.79
3,WSSRSPQERSRVLNQVADTLEQSL,3.74
4,WSSRSPQERSRVLNQVADRLEQSL,3.98
5,WSSRSPQERSRVLNQVADDLEQSL,3.72
6,WSSRSPQERSRVLNQVADWLEQSL,2.24
7,WSSRSPQERSRVLNQVADYLEQSL,3.15
8,WSSRSPQERSRVLNQVADSLEQSL,4.14
9,WSSRSPQERSRVLNQVADHLEQSL,3.97
10,WSSRSPQERSRVLNAVADLLEQSL,1.51
11,WSSRSPQERSRVLNWVADLLEQSL,1.79
12,WSSRSPQERSRVLNKVADLLEQSL,2.13
13,WSSRSPQERSRVLNNVADLLEQSL,3.22
14,WSSRSPQERSRVLNVVADLLEQSL,1.75
15,WSSRSPQERSRVLNGVADLLEQSL,2.66
16,WSSRSPQERSRVLNIVADLLEQSL,2.07
17,WSSRSPQERSRVLNSVADLLEQSL,2.74
18,WSSRSPQERSRVLNLVADLLEQSL,2.36
19,WSSRSPQERSRVLNHVADLLEQSL,2.13
20,WSSRSPQERSRVLNEVADLLEQSL,3.03
21,WSSRSPQERSRVLNPVADLLEQSL,3.13
22,WSSRSPQERSRVLNRVADLLEQSL,2.85
23,WSSRSPQERSRVLNTVADLLEQSL,2.59
24,WSSRSPQERSRVLNDVADLLEQSL,3.31

row,Variant,protein stability index
1,WSSRSPQERSRVLNFVADLLEQSL,1.54
2,WSSRSPQERSRVLNCVADLLEQSL,1.81
3,WSSRSPQERSRVLNMVADLLEQSL,1.67
4,WSSRSPQERSRVLNYVADLLEQSL,1.81
5,WSSRSPQERSRVLNQVADLLCQSL,2.47
6,WSSRSPQERSRVLNQVADLLLQSL,2.11
7,WSSRSPQERSRVLNQVADLLYQSL,1.71
8,WSSRSPQERSRVLNQVADLLGQSL,2.24
9,WSSRSPQERSRVLNQVADLLKQSL,1.61
10,WSSRSPQERSRVLNQVADLLAQSL,2.13
11,WSSRSPQERSRVLNQVADLLSQSL,2.27
12,WSSRSPQERSRVLNQVADLLMQSL,2
13,WSSRSPQERSRVLNQVADLLNQSL,2.52
14,WSSRSPQERSRVLNQVADLLVQSL,2.17
15,WSSRSPQERSRVLNQVADLLIQSL,2.09
16,WSSRSPQERSRVLNQVADLLDQSL,2.58
17,WSSRSPQERSRVLNQVADLLFQSL,2.47
18,WSSRSPQERSRVLNQVADLLWQSL,1.58
19,WSSRSPQERSRVLNQVADLLTQSL,2.33
20,WSSRSPQERSRVLNQVADLLRQSL,2.26
21,WSSRSPQERSRVLNQVADLLQQSL,2.38
22,WSSRSPQERSRVLNQVADLLPQSL,3.24
23,WSSRSPQERSRVLNQVADLREQSL,3.5
24,WSSRSPQERSRVLNQVADLPEQSL,4.33

row,Variant,protein stability index
1,WSSRSPQERSRVLNQVADLQEQSL,3.68
2,WSSRSPQERSRVLNQVADLWEQSL,2.82
3,WSSRSPQERSRVLNQVADLFEQSL,2.75
4,WSSRSPQERSRVLNQVADLTEQSL,4.08
5,WSSRSPQERSRVLNQVADLDEQSL,4.64
6,WSSRSPQERSRVLNQVADLVEQSL,3.03
7,WSSRSPQERSRVLNQVADLHEQSL,3.86
8,WSSRSPQERSRVLNQVADLAEQSL,3.59
9,WSSRSPQERSRVLNQVADLYEQSL,3.37
10,WSSRSPQERSRVLNQVADLNEQSL,4.14
11,WSSRSPQERSRVLNQVADLSEQSL,3.96
12,WSSRSPQERSRVLNQVADLEEQSL,4.43
13,WSSRSPQERSRVLNQVADLMEQSL,3.44
14,WSSRSPQERSRVLNQVADLIEQSL,2.28
15,WSSRSPQERSRVLNQVADLGEQSL,3.64
16,WSSRSPQERSRVLNQVADLKEQSL,4.64
17,WSSRSPQERSRVLNQVADLCEQSL,3.45
18,WSSRSPQERSRSLNQVADLLEQSL,3.78
19,WSSRSPQERSRWLNQVADLLEQSL,1.73
20,WSSRSPQERSRTLNQVADLLEQSL,3.47
21,WSSRSPQERSRYLNQVADLLEQSL,2.74
22,WSSRSPQERSRRLNQVADLLEQSL,2.71
